Numbered stars: 1 amine (or outer) side, 2 acyl side, 3 side chain; on linkers, the order of the positions; unused ones are H or OH. Bridge positions count the residues as written; N and C are the ends. Side chains are listed from the residue outwards. Ends that are not written are not given here. * marks the point of attachment. C20 diacid = O=C(O)CCCCCCCCCCCCCCCCCCC(=O)*; γGlu = O=C(O)[C@H](CCC(=O)[*:2])N[*:1]
T1: human amylin receptor (amylin 3(a) receptor: human calcitonin receptor plus RAMP-3) (human, UniProt P30988 25-474; O60896 24-148)
T1 construct: whole, on cells; the species of RAMP-3 is told only through the name 'human amylin receptor'; also called hAmylin-R; hAmylinR
T1 sequence (looked up) 1: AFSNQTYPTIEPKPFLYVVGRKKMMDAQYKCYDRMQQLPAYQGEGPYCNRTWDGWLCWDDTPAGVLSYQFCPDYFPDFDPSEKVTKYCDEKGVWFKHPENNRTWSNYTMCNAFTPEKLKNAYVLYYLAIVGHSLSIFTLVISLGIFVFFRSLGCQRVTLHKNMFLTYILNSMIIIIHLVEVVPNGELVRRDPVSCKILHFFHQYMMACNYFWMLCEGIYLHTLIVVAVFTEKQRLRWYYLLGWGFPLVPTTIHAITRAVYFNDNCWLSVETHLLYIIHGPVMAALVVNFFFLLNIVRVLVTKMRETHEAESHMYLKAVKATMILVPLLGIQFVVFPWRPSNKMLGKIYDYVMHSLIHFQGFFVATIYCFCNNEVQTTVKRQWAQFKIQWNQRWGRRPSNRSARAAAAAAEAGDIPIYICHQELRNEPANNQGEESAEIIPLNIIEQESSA
T1 sequence (looked up) 2: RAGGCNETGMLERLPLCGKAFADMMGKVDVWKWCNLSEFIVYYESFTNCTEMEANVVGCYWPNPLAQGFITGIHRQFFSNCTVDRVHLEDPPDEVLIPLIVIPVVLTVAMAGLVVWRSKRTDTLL

T2: human calcitonin receptor (human, UniProt P30988 25-474)
T2 construct: whole, on cells; also called hCTR; hCT
T2 sequence (looked up): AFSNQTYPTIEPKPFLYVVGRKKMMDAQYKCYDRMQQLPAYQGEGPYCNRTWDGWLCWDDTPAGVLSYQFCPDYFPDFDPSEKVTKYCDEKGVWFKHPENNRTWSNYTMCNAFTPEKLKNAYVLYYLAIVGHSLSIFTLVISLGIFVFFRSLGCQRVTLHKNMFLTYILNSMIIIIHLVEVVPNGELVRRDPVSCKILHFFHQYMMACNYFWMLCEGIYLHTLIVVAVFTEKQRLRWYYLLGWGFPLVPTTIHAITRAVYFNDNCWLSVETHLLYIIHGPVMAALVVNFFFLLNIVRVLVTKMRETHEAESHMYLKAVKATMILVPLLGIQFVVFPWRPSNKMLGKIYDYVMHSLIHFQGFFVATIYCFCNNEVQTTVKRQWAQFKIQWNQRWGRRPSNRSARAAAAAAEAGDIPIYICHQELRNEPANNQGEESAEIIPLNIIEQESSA


What was measured:
[1] = target: T1, human amylin receptor (amylin 3(a) …); assay: SPA competition binding, membranes with human amylin 3(a) receptor, displacement of 125I-rat amylin (Assay V)
Method: The binding assay was performed using scintillation proximity assay (SPA) beads (RPNQ0001) from PerkinElmer and cell membranes from the Amylin 3(a)/CRE-luc cells (as described in Assay (II)) were used. Membranes were prepared in the following way; the cells were rinsed with PBS and incubated with Versene for approximately 5 min before harvesting. The cells were flushed with PBS and the cell-suspension was centrifuged for 5 min at 1000 rpm. Cells were homogenized (ultrathurrax) in a buffer containing 20 mM Na-HEPES and 10 mM EDTA (pH 7.4) and centrifuged at 20.000 rpm for 15 min. The resulting pellet was resuspended, homogenized and centrifuged (20.000 rpm, 15 min) in a buffer containing 20 mM Na-HEPES and 0.1 mM EDTA (pH 7.4, buffer 2). The resulting pellet was resuspended in buffer 2 and protein concentration was measured (BCA protein Assay, Pierce). The homogenate was kept cold during the whole procedure. The membranes were kept at −80° C. until use. The assay was performed in a 384 well Optiplate (PerkinElmer) in a total volume of 40 ul. Membranes were mixed with SPA beads. Final concentration of membranes 35 ng/μL final and SPA beads was 0.05 mg/well. Test-compounds were dissolved in DMSO and further diluted in assay buffer (50 mM Hepes, pH 7.4, 1 mM CaCl2, 5 mM MgCl₂, 0.1% OA and 0.02% Tween20). […] The final mixture was incubated with shaking at 400 rpm for 120 min at 25° C. prior to centrifugation (1500 rpm, 10 min). Samples were analyzed on TopCounter™ (Packard). The IC₅₀ was calculated using (one site binding competition analysis) GraphPad Prism5 as a measure of receptor affinity.

[2] = target: T2, human calcitonin receptor; assay: ratio of IC50 at hCTR to IC50 at the human amylin receptor (reference)
Summary of the method: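 Competition binding by SPA uses membrane preparations (35 ng/μL final) in pH 7.4 Hepes buffer with 1 mM CaCl2 and 5 mM MgCl₂. Incubation lasts 120 min at 25° C, and IC₅₀ comes from one-site fitting.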

[3] = target: T2, human calcitonin receptor; assay: SPA competition binding, membranes with human calcitonin receptor, displacement of 125I-calcitonin (Assay VII)
Summary of the method: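 BHK hCTR membranes 35 ng/μL + SPA beads 0.05 mg/well; buffer 50 mM Hepes pH 7.4, 1 mM CaCl2, 5 mM MgCl₂, 0.1% OA, 0.02% Tween20. 120 min, 25° C., shaking. Scintillation count; IC50 by one-site binding competition.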

Binder | IC50 [1] | Ratio hCT/hAmylin binding [2] | IC50 [3]
KCNTATCATQRLANFLRHSSPNFGAIPSSTNVGSNTY (C20 diacid-gGlu-2xOEG on the alpha amino group of the N-terminal residue; disulfide bridge Cys2-Cys7; C-terminal amide, also called compound 24) | 1.14 nM | 90 | 102 nM
{C20 diacid-γGlu}-KCNTATCATQRLANFLRHSSPNFGAIPSSTNVGPETY-NH2 (disulfide 2-7; SMILES CC[C@H](C)[C@H](NC(=O)[C@H](C)NC(=O)CNC(=O)[C@H](Cc1ccccc1)NC(=O)[C@H](CC(N)=O)NC(=O)[C@@H]1CCCN1C(=O)[C@H](CO)NC(=O)[C@H](CO)NC(=O)[C@H](Cc1c[nH]cn1)NC(=O)[C@H](CCCNC(=N)N)NC(=O)[C@H](CC(C)C)NC(=O)[C@H](Cc1ccccc1)NC(=O)[C@H](CC(N)=O)NC(=O)[C@H](C)NC(=O)[C@H](CC(C)C)NC(=O)[C@H](CCCNC(=N)N)NC(=O)[C@H](CCC(N)=O)NC(=O)[C@@H](NC(=O)[C@H](C)NC(=O)[C@@H]1CSSC[C@H](NC(=O)[C@H](CCCCN)NC(=O)CC[C@H](NC(=O)CCCCCCCCCCCCCCCCCCC(=O)O)C(=O)O)C(=O)N[C@@H](CC(N)=O)C(=O)N[C@@H]([C@@H](C)O)C(=O)N[C@@H](C)C(=O)N[C@@H]([C@@H](C)O)C(=O)N1)[C@@H](C)O)C(=O)N1CCC[C@H]1C(=O)N[C@@H](CO)C(=O)N[C@@H](CO)C(=O)N[C@H](C(=O)N[C@@H](CC(N)=O)C(=O)N[C@H](C(=O)NCC(=O)N1CCC[C@H]1C(=O)N[C@@H](CCC(=O)O)C(=O)N[C@H](C(=O)N[C@@H](Cc1ccc(O)cc1)C(N)=O)[C@@H](C)O)C(C)C)[C@@H](C)O, also called compound 29) | 0.577 nM | 13.9 | 8.01 nM
{C20 diacid-γGlu}-KCNTATCATQRLAEFLRHSSPNFGAIPSSTNVGHNTY-NH2 (disulfide 2-7; SMILES CC[C@H](C)[C@H](NC(=O)[C@H](C)NC(=O)CNC(=O)[C@H](Cc1ccccc1)NC(=O)[C@H](CC(N)=O)NC(=O)[C@@H]1CCCN1C(=O)[C@H](CO)NC(=O)[C@H](CO)NC(=O)[C@H](Cc1c[nH]cn1)NC(=O)[C@H](CCCNC(=N)N)NC(=O)[C@H](CC(C)C)NC(=O)[C@H](Cc1ccccc1)NC(=O)[C@H](CCC(=O)O)NC(=O)[C@H](C)NC(=O)[C@H](CC(C)C)NC(=O)[C@H](CCCNC(=N)N)NC(=O)[C@H](CCC(N)=O)NC(=O)[C@@H](NC(=O)[C@H](C)NC(=O)[C@@H]1CSSC[C@H](NC(=O)[C@H](CCCCN)NC(=O)CC[C@H](NC(=O)CCCCCCCCCCCCCCCCCCC(=O)O)C(=O)O)C(=O)N[C@@H](CC(N)=O)C(=O)N[C@@H]([C@@H](C)O)C(=O)N[C@@H](C)C(=O)N[C@@H]([C@@H](C)O)C(=O)N1)[C@@H](C)O)C(=O)N1CCC[C@H]1C(=O)N[C@@H](CO)C(=O)N[C@@H](CO)C(=O)N[C@H](C(=O)N[C@@H](CC(N)=O)C(=O)N[C@H](C(=O)NCC(=O)N[C@@H](Cc1c[nH]cn1)C(=O)N[C@@H](CC(N)=O)C(=O)N[C@H](C(=O)N[C@@H](Cc1ccc(O)cc1)C(N)=O)[C@@H](C)O)C(C)C)[C@@H](C)O, also called compound 17) | 0.878 nM | 12.5 | 10.9 nM
{C20 diacid-γGlu}-KCNTATCATQRLAEFLRHSSPNFGAIPSSTNVGPNTY-NH2 (disulfide 2-7; SMILES CC[C@H](C)[C@H](NC(=O)[C@H](C)NC(=O)CNC(=O)[C@H](Cc1ccccc1)NC(=O)[C@H](CC(N)=O)NC(=O)[C@@H]1CCCN1C(=O)[C@H](CO)NC(=O)[C@H](CO)NC(=O)[C@H](Cc1c[nH]cn1)NC(=O)[C@H](CCCNC(=N)N)NC(=O)[C@H](CC(C)C)NC(=O)[C@H](Cc1ccccc1)NC(=O)[C@H](CCC(=O)O)NC(=O)[C@H](C)NC(=O)[C@H](CC(C)C)NC(=O)[C@H](CCCNC(=N)N)NC(=O)[C@H](CCC(N)=O)NC(=O)[C@@H](NC(=O)[C@H](C)NC(=O)[C@@H]1CSSC[C@H](NC(=O)[C@H](CCCCN)NC(=O)CC[C@H](NC(=O)CCCCCCCCCCCCCCCCCCC(=O)O)C(=O)O)C(=O)N[C@@H](CC(N)=O)C(=O)N[C@@H]([C@@H](C)O)C(=O)N[C@@H](C)C(=O)N[C@@H]([C@@H](C)O)C(=O)N1)[C@@H](C)O)C(=O)N1CCC[C@H]1C(=O)N[C@@H](CO)C(=O)N[C@@H](CO)C(=O)N[C@H](C(=O)N[C@@H](CC(N)=O)C(=O)N[C@H](C(=O)NCC(=O)N1CCC[C@H]1C(=O)N[C@@H](CC(N)=O)C(=O)N[C@H](C(=O)N[C@@H](Cc1ccc(O)cc1)C(N)=O)[C@@H](C)O)C(C)C)[C@@H](C)O, also called compound 32) | 0.1 nM | 10.9 | 1.09 nM

More lines, in order of falling IC50 [1], values ahead:

IC50 [1] | Ratio hCT/hAmylin binding [2] | IC50 [3] | Binder
1.14 nM | 64.4 | 73.4 nM | KCNTATCATQRLANFLRHSSPNFGAIPSSTNVGSKTY (C20 diacid-gGlu on the alpha amino group of the N-terminal residue; disulfide bridge Cys2-Cys7; C-terminal amide, also called compound 34) [N^α1-[(4S)-4-carboxy-4-(19-carboxynonadecanoylamino)butanoyl]-[Arg17,Pro21,Pro27,Lys35]-h-amylin]
0.411 nM | 47.5 | 19.5 nM | K([γGlu-γGlu-C20 diacid])CNTATCATQRLADFLRHSSPNFGAIPSSTNVGSDTY-NH2 (disulfide 2-7; N-terminus assumed; SMILES CC[C@H](C)[C@H](NC(=O)[C@H](C)NC(=O)CNC(=O)[C@H](Cc1ccccc1)NC(=O)[C@H](CC(N)=O)NC(=O)[C@@H]1CCCN1C(=O)[C@H](CO)NC(=O)[C@H](CO)NC(=O)[C@H](Cc1c[nH]cn1)NC(=O)[C@H](CCCNC(=N)N)NC(=O)[C@H](CC(C)C)NC(=O)[C@H](Cc1ccccc1)NC(=O)[C@H](CC(=O)O)NC(=O)[C@H](C)NC(=O)[C@H](CC(C)C)NC(=O)[C@H](CCCNC(=N)N)NC(=O)[C@H](CCC(N)=O)NC(=O)[C@@H](NC(=O)[C@H](C)NC(=O)[C@@H]1CSSC[C@H](NC(=O)[C@@H](N)CCCCNC(=O)CC[C@H](NC(=O)CC[C@H](NC(=O)CCCCCCCCCCCCCCCCCCC(=O)O)C(=O)O)C(=O)O)C(=O)N[C@@H](CC(N)=O)C(=O)N[C@@H]([C@@H](C)O)C(=O)N[C@@H](C)C(=O)N[C@@H]([C@@H](C)O)C(=O)N1)[C@@H](C)O)C(=O)N1CCC[C@H]1C(=O)N[C@@H](CO)C(=O)N[C@@H](CO)C(=O)N[C@H](C(=O)N[C@@H](CC(N)=O)C(=O)N[C@H](C(=O)NCC(=O)N[C@@H](CO)C(=O)N[C@@H](CC(=O)O)C(=O)N[C@H](C(=O)N[C@@H](Cc1ccc(O)cc1)C(N)=O)[C@@H](C)O)C(C)C)[C@@H](C)O, also called compound 2)

Source: patent publication US20140087995A1 (published 2014)
